The record followed here is PMC9990120 (Journal of Proteome Research, 2023).

The experiment deals with BirA*-FLAG tagged GSK-3β (UniProt P49841 1-420). Put plainly: proximity labelling.
Chain of BirA*-FLAG tagged GSK-3β (P49841 whole entry): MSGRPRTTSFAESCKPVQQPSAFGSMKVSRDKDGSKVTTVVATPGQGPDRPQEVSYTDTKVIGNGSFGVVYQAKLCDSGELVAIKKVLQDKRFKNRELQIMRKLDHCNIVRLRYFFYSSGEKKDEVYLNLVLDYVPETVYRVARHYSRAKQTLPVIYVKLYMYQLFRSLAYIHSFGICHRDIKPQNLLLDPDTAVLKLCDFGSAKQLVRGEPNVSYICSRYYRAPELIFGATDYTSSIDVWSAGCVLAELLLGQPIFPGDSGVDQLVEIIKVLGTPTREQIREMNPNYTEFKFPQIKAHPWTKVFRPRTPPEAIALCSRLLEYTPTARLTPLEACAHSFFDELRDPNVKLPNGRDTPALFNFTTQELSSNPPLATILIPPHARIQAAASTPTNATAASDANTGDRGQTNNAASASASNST

B1: MISP (natural protein)
chain: MDRVTRYPILGIPQAHRGTGLVLDGDTSYTYHLVCMGPEASGWGQDEPQTWPTDHRAQQGVQRQGVSYSVHAYTGQPSPRGLHSENREDEGWQVYRLGARDAHQGRPTWALRPEDGEDKEMKTYRLDAGDADPRRLCDLERERWAVIQGQAVRKSSTVATLQGTPDHGDPRTPGPPRSTPLEENVVDREQIDFLAARQQFLSLEQANKGAPHSSPARGTPAGTTPGASQAPKAFNKPHLANGHVVPIKPQVKGVVREENKVRAVPTWASVQVVDDPGSLASVESPGTPKETPIEREIRLAQEREADLREQRGLRQATDHQELVEIPTRPLLTKLSLITAPRRERGRPSLYVQRDIVQETQREEDHRREGLHVGRASTPDWVSEGPQPGLRRALSSDSILSPAPDARAADPAPEVRKVNRIPPDAYQPYLSPGTPQLEFSAFGAFGKPSSLSTAEAKAATSPKATMSPRHLSESSGKPLSTKQEASKPPRGCPQANRGVVRWEYFRLRPLRFRAPDEPQQAQVPHVWGWEVAGAPALRLQKSQSSDLLERERESVLRREQEVAEERRNALFPEVFSPTPDENSDQNSRSSSQASGITGSYSVSESPFFSPIHLHSNVAWTVEDPVDSAPPGQRKKEQWYAGINPSDGINSEVLEAIRVTRHKNAMAERWESRIYASEEDD
With B1, the “fold signal intensity against the GSK-3α bait (normalised to bait level)” value was ~4 fold.
